Test [1] deals with T1, human glucagon receptor (human, UniProt P47871 26-477). Description: cell-based or functional assay.
The target in test [2] is T2, human GIP receptor (human, UniProt P48546 22-466).
T2 sequence (looked up): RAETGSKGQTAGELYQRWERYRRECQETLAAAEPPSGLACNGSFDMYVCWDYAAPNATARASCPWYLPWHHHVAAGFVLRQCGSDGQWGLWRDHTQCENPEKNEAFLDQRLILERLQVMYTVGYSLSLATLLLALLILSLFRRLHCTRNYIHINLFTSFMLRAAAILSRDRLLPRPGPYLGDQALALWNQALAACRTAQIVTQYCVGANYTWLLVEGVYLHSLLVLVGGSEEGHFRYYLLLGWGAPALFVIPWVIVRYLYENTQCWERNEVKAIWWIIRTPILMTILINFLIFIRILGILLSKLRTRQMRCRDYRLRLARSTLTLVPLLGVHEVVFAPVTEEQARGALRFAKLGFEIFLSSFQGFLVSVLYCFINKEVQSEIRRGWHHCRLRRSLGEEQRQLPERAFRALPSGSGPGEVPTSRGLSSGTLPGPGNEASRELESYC
Nature of the test: cell-based or functional assay.

Test [3] deals with T3, human GLP-1 receptor (human, UniProt P43220 24-463). Nature of the test: cell-based or functional assay.
For test [4], the target named is T2, human GIP receptor. Nature of the test: radioligand competition SPA, membranes of HEK293 cells overexpressing human GIPR. The protocol:
(§1) Radioligand competition binding assays are run to determine the equilibrium dissociation constant for Example compounds and comparator molecules.
(§2) The assays are performed in the presence of bacitracin as a non-specific blocking agent to prevent acylated moieties of test analogs from binding to protein components used in standard assay buffers (e.g., albumin).
(§3) Competition curves are plotted as the percent specific inhibition (y-axis) versus log concentration of compound (x-axis) and analyzed using a four parameter nonlinear regression fit with variable slope (ABase or Genedata).
A general note: In a radioligand displacement assay an active substance lowers the binding of a labelled ligand.

Test [5] concerns the target T1, human glucagon receptor. Nature of the test: cell-based or functional assay. This is another data set of the same source.
The target in test [6] is T2, human GIP receptor. Nature of the test: cell-based or functional assay. The source holds these as a separate data set.
In test [7] the target is T3, human GLP-1 receptor. Description: cell-based or functional assay. The source holds these as a separate data set.
Test [8] has as its target T1, human glucagon receptor. Nature of the test: radioligand competition SPA, membranes of HEK293 cells overexpressing human GcgR. The protocol: as §1, §2, §3
The target of test [9] is T3, human GLP-1 receptor. Nature of the test: radioligand competition SPA, membranes of HEK293 cells overexpressing human GLP-1R. As to the method: as §1, §2, §3

*1 amine or outer side, *2 acyl side, *3 side chain or, on linkers, in order; H or OH if unused. Where no end group is shown, it is not given here. Side-chain parts run from the residue outwards. [ ]: non-standard residue; d: D form. The star is where a group is joined. C20 diacid = O=C(O)CCCCCCCCCCCCCCCCCCC(=O)*; αMePhe(2-F) = C[C@](N)(Cc1ccccc1F)C(=O)O; γGlu = O=C(O)[C@H](CCC(=O)[*:2])N[*:1]; AEEA = NCCOCCOCC(=O)O; Aib = CC(C)(N)C(=O)O

T1 sequence (P47871 26-477): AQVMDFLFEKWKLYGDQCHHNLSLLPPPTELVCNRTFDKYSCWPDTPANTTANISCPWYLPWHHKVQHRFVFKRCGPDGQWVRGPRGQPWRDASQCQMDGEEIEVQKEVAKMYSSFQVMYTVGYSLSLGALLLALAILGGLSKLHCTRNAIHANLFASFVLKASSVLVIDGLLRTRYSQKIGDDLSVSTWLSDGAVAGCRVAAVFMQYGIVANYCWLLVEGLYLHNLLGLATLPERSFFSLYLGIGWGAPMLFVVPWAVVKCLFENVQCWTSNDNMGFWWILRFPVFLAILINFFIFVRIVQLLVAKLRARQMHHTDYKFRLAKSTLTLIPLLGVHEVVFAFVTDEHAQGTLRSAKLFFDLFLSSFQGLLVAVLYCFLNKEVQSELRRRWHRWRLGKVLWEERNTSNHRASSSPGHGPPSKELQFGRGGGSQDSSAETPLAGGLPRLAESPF

B1: Example 1 (peptide)
peptide: YXQGTXTSDYSILLDKKAQXAFIEYLLEGGPSSGAPPPS
modifications: Aib at 2; αMeF at 6; K17 conjugated at the epsilon-amino group with (2-[2-(2-amino-ethoxy)-ethoxy]-acetyl)2-(γGlu)-CO-(CH2)18-CO2H; Aib at 20; C-terminal amide
notes: Synthetic acylated peptide
For the molecule B1, the entries for the “cAMP EC50, in the presence of FBS and BSA” value (“cAMP EC50 … of FBS and BSA” for short) in the test with human glucagon receptor [1], with human GIP receptor [2] and in the test with human GLP-1 receptor [3] were 6.33 nM, 1.82 nM and 12.6 nM, respectively. Besides, the Ki was 0.0278 nM with human GIP receptor [4], 0.955 nM in the test with human glucagon receptor [8] and 2.51 nM with human GLP-1 receptor [9]. Moreover, the entries for the “cAMP EC50, in the presence of 0.1% casein” value (“cAMP EC50 … of 0.1% casein” for short) with human glucagon receptor [5], with human GIP receptor [6] and with human GLP-1 receptor [7] were 0.158 nM, 0.0226 nM and 0.112 nM, respectively.

B2: Example 4 (peptide)
peptide: YXQGTXTSDYSILLDKKAQXAFIEYLLEGGPSSGAPPPS
modifications: Aib at 2; αMeF(2F) at 6; K17 conjugated at the epsilon-amino group with (2-[2-(2-amino-ethoxy)-ethoxy]-acetyl)-(γGlu)-CO-(CH2)18-CO2H; Aib at 20; C-terminal amide
notes: Synthetic acylated peptide
With B2, the “cAMP EC50 … of FBS and BSA” value with human glucagon receptor [1] is 1.78 nM; with human GIP receptor [2] it was 1.37 nM; in the test with human GLP-1 receptor [3], 10.6 nM. Also, the Ki with human GIP receptor [4] stood at 0.0832 nM; with human glucagon receptor [8], 0.637 nM; with human GLP-1 receptor [9] it was 1.21 nM. For the same molecule, the “cAMP EC50 … of 0.1% casein” value came out at 0.0296 nM in the test with human glucagon receptor [5], 0.0321 nM in the test with human GIP receptor [6] and 0.145 nM in the test with human GLP-1 receptor [7].

B3: Example 2 (peptide)
peptide: YXQGTXTSDYSIXLDKKAQXAFIEYLLEGGPSSGAPPPS
modifications: Aib at 2; αMeF at 6; αMeL at 13; K17 conjugated at the epsilon-amino group with (2-[2-(2-amino-ethoxy)-ethoxy]-acetyl)2-(γGlu)-CO-(CH2)18-CO2H; Aib at 20; C-terminal amide
notes: Synthetic acylated peptide
For B3, the “cAMP EC50 … of FBS and BSA” value with human glucagon receptor [1] was found to be 4.75 nM; with human GIP receptor [2] it was 1.34 nM; with human GLP-1 receptor [3], 11.6 nM. The Ki in the test with human GIP receptor [4] is 0.0413 nM; in the test with human glucagon receptor [8] it was 1.49 nM; in the test with human GLP-1 receptor [9], 2.41 nM. In addition, the “cAMP EC50 … of 0.1% casein” value came to 0.096 nM with human glucagon receptor [5], 0.0329 nM with human GIP receptor [6] and 0.106 nM with human GLP-1 receptor [7].

B4: Example 3 (peptide)
peptide: YXHGTXTSDYSILLDKKAQXAFIEYLLEGGPSSGAPPPS
modifications: Aib at 2; αMeF(2F) at 6; K17 conjugated at the epsilon-amino group with (2-[2-(2-amino-ethoxy)-ethoxy]-acetyl)2-(γGlu)-CO-(CH2)18-CO2H; Aib at 20; C-terminal amide
notes: Synthetic acylated peptide
Turning to B4, the “cAMP EC50 … of FBS and BSA” value came to 3.46 nM in the test with human glucagon receptor [1], 1.37 nM in the test with human GIP receptor [2] and 13.1 nM with human GLP-1 receptor [3]. In addition, the Ki in the test with human GIP receptor [4] was determined as 0.0684 nM; with human glucagon receptor [8], 0.469 nM; in the test with human GLP-1 receptor [9] it was 1.66 nM. For the same molecule, the “cAMP EC50 … of 0.1% casein” value is 0.0301 nM with human glucagon receptor [5], 0.0215 nM with human GIP receptor [6] and 0.104 nM with human GLP-1 receptor [7].

B5: Example 5 (peptide)
peptide: Y[Aib]QGT[αMePhe(2-F)]TSDYSILLDKK([AEEA-γGlu-C20 diacid])AQQAFIEYLLEGGPSSGAPPPS-NH2
modifications: N-terminus assumed
SMILES: CC[C@H](C)[C@H](NC(=O)[C@H](Cc1ccccc1)NC(=O)[C@H](C)NC(=O)[C@H](CCC(N)=O)NC(=O)[C@H](CCC(N)=O)NC(=O)[C@H](C)NC(=O)[C@H](CCCCNC(=O)COCCOCCNC(=O)CC[C@H](NC(=O)CCCCCCCCCCCCCCCCCCC(=O)O)C(=O)O)NC(=O)[C@H](CCCCN)NC(=O)[C@H](CC(=O)O)NC(=O)[C@H](CC(C)C)NC(=O)[C@H](CC(C)C)NC(=O)[C@@H](NC(=O)[C@H](CO)NC(=O)[C@H](Cc1ccc(O)cc1)NC(=O)[C@H](CC(=O)O)NC(=O)[C@H](CO)NC(=O)[C@@H](NC(=O)[C@](C)(Cc1ccccc1F)NC(=O)[C@@H](NC(=O)CNC(=O)[C@H](CCC(N)=O)NC(=O)C(C)(C)NC(=O)[C@@H](N)Cc1ccc(O)cc1)[C@@H](C)O)[C@@H](C)O)[C@@H](C)CC)C(=O)N[C@@H](CCC(=O)O)C(=O)N[C@@H](Cc1ccc(O)cc1)C(=O)N[C@@H](CC(C)C)C(=O)N[C@@H](CC(C)C)C(=O)N[C@@H](CCC(=O)O)C(=O)NCC(=O)NCC(=O)N1CCC[C@H]1C(=O)N[C@@H](CO)C(=O)N[C@@H](CO)C(=O)NCC(=O)N[C@@H](C)C(=O)N1CCC[C@H]1C(=O)N1CCC[C@H]1C(=O)N1CCC[C@H]1C(=O)N[C@@H](CO)C(N)=O
notes: Synthetic acylated peptide
As to B5, the entries for the “cAMP EC50 … of FBS and BSA” value in the test with human glucagon receptor [1], in the test with human GIP receptor [2] and in the test with human GLP-1 receptor [3] were 1.87 nM, 1.91 nM and 13 nM, respectively. The Ki turned out to be 0.0347 nM with human GIP receptor [4], 0.419 nM with human glucagon receptor [8] and 1.17 nM with human GLP-1 receptor [9]. The figures for the “cAMP EC50 … of 0.1% casein” value with human glucagon receptor [5], with human GIP receptor [6] and with human GLP-1 receptor [7] were 0.0343 nM, 0.0306 nM and 0.103 nM, respectively.

B6: Example 6 (peptide)
peptide: Y[Aib]QGT[αMePhe(2-F)]TSDYSILLDKK([AEEA-γGlu-C20 diacid])AQHAFIEYLLEGGPSSGAPPPS-NH2
modifications: N-terminus assumed
SMILES: CC[C@H](C)[C@H](NC(=O)[C@H](Cc1ccccc1)NC(=O)[C@H](C)NC(=O)[C@H](Cc1c[nH]cn1)NC(=O)[C@H](CCC(N)=O)NC(=O)[C@H](C)NC(=O)[C@H](CCCCNC(=O)COCCOCCNC(=O)CC[C@H](NC(=O)CCCCCCCCCCCCCCCCCCC(=O)O)C(=O)O)NC(=O)[C@H](CCCCN)NC(=O)[C@H](CC(=O)O)NC(=O)[C@H](CC(C)C)NC(=O)[C@H](CC(C)C)NC(=O)[C@@H](NC(=O)[C@H](CO)NC(=O)[C@H](Cc1ccc(O)cc1)NC(=O)[C@H](CC(=O)O)NC(=O)[C@H](CO)NC(=O)[C@@H](NC(=O)[C@](C)(Cc1ccccc1F)NC(=O)[C@@H](NC(=O)CNC(=O)[C@H](CCC(N)=O)NC(=O)C(C)(C)NC(=O)[C@@H](N)Cc1ccc(O)cc1)[C@@H](C)O)[C@@H](C)O)[C@@H](C)CC)C(=O)N[C@@H](CCC(=O)O)C(=O)N[C@@H](Cc1ccc(O)cc1)C(=O)N[C@@H](CC(C)C)C(=O)N[C@@H](CC(C)C)C(=O)N[C@@H](CCC(=O)O)C(=O)NCC(=O)NCC(=O)N1CCC[C@H]1C(=O)N[C@@H](CO)C(=O)N[C@@H](CO)C(=O)NCC(=O)N[C@@H](C)C(=O)N1CCC[C@H]1C(=O)N1CCC[C@H]1C(=O)N1CCC[C@H]1C(=O)N[C@@H](CO)C(N)=O
notes: Synthetic acylated peptide
With B6, the “cAMP EC50 … of FBS and BSA” value with human glucagon receptor [1] was 1.76 nM; in the test with human GIP receptor [2] it was 1.41 nM; with human GLP-1 receptor [3], 8.94 nM. Further, the Ki with human GIP receptor [4] is 0.0388 nM; in the test with human glucagon receptor [8], 0.382 nM; with human GLP-1 receptor [9] it was 0.822 nM. Moreover, the “cAMP EC50 … of 0.1% casein” value with human glucagon receptor [5] is 0.0293 nM; with human GIP receptor [6] it was 0.0349 nM; with human GLP-1 receptor [7], 0.115 nM.

As usually defined, the Ki is the equilibrium dissociation constant of an inhibitor or competing ligand from its target. A high value points to a looser hold on the target.

These data come from patent US20240190936A1 (Eli Lilly, published 2024).
